B1: Leu16VhY/VkZ (anti-CD20 PC1) (antibody, IgG1, V domains shown)
VH: EVQLQQSGAELKKPGASVKVSCKASGYTFTSYNMHWVKQTPGQGLEWIGAIYPGNGDTSYNQKFKGKTTLTADKSSSTAYMELSSLRSEDTAVYYCARSNYYGSSYWFFDVWGTGTTVTVSS
VL: DIVLTQSPAIITASPGEKVTMTCRASSSVNYMDWYQKKPGSSPKPWIYATSNLASGVPSRFSGSGSGTTYSMTISSLEAEDAATYYCQQWSFNPPTFGGGTKLEIK
notes: Chimeric IgG1/kappa antibody; also called DILeu16; DI-Leu16 antibody; not shown: human kappa light chain constant region
B2: human CD20 antigen on Daudi lymphoma cells (other, UniProt P11836 1-297, looked up)
chain: MTTPRNSVNGTFPAEPMKGPIAMQSGPKPLFRRMSSLVGPTQSFFMRESKTLGAVQIMNGLFHIALGGLLMIPAGIYAPICVTVWYPLWGGIMYIISGSLLAATEKNSRKCLVKGKMIMNSLSLFAAISGMILSIMDILNIKISHFLKMESLNFIRAHTPYINIYNCEPANPSEKNSPSTQYCYSIQSLFLGILSVMLIFAFFQELVIAGIVENEWKRTCSRPKSNIVLLSAEEKKEQTIEIKEEVVGLTETSSQPKNEEDIEIIPIQEEEEEETETNFPEPPQDQESSPIENDSSP
notes: whole, on cells; also called Bp35

Test [1] has as its target T1, human CD20 antigen on Daudi lymphoma cells (human) (UniProt P11836).
T1 sequence (looked up): B2 chain
The experiment in a line: flow cytometry on Daudi cells; antibody at 5 g/ml as printed. In general terms: A flow cytometer gives signals particle by particle.

The target of test [2] is T1, human CD20 antigen on Daudi lymphoma cells (human). The experiment in a line: flow cytometry on Daudi cells; antibody at 10 g/ml as printed.
The target is the same in test [3]. The experiment in a line: flow cytometry on Daudi cells; antibody at 2.5 g/ml as printed.
Test [4] has the same target. The experiment in a line: flow cytometry on Daudi cells; antibody at 1.25 g/ml as printed.
For test [5] the target is unchanged. The experiment in a line: flow cytometry on Daudi cells; antibody at 0.078 g/ml as printed.
Test [6] has the same target. The experiment in a line: flow cytometry on Daudi cells; antibody at 0.156 g/ml as printed.
Test [7] shares this target. The test can be described thus: flow cytometry on Daudi cells; antibody at 0.313 g/ml as printed.
For test [8] the target is unchanged. The test can be described thus: flow cytometry on Daudi cells; antibody at 0.625 g/ml as printed.
In test [9] the target is high affinity IL-2R on a mouse cell line (CTLL-2) (mouse) (UniProt P01590). The experiment in a line: cell-based or functional assay.
Sequence of high affinity IL-2R on a mouse cell line (CTLL-2) (mouse) (P01590 22-268, chain 1 of 3): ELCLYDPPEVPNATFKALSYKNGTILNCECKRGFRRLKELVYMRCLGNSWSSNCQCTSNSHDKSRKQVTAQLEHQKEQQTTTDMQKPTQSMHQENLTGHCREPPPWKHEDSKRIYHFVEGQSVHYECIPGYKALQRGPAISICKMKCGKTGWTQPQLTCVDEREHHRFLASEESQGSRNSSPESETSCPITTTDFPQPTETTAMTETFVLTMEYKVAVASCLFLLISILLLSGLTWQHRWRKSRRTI
Sequence of high affinity IL-2R on a mouse cell line (CTLL-2) (mouse) (P16297 27-539, chain 2 of 3, further chain): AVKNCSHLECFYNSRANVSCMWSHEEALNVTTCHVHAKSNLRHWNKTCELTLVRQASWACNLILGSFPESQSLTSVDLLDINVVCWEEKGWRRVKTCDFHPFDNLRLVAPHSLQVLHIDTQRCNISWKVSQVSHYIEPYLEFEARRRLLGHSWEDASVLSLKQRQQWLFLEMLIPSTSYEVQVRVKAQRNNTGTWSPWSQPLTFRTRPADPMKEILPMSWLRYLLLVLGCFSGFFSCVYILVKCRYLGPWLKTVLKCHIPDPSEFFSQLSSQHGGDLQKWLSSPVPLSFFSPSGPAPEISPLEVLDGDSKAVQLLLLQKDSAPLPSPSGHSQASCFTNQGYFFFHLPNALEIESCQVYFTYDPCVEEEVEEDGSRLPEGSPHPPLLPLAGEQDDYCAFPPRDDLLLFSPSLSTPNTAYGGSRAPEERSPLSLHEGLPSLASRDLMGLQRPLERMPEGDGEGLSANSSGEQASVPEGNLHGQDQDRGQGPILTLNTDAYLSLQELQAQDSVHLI
Sequence of high affinity IL-2R on a mouse cell line (CTLL-2) (mouse) (P34902 23-369, chain 3 of 3, further chain): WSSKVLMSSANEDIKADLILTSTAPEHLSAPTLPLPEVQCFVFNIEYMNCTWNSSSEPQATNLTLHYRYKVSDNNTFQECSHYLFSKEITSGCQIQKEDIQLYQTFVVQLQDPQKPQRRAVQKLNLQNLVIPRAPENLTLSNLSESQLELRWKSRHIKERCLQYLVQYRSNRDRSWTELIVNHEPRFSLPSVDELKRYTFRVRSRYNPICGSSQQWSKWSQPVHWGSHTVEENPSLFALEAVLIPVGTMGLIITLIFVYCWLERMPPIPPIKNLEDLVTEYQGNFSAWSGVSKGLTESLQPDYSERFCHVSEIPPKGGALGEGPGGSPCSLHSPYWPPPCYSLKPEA
In the next test the target is IL-2 Rβ on TF-1β cells (UniProt P14784). The test can be described thus: cell-based or functional assay.
Sequence of IL-2 Rβ on TF-1β cells (P14784 27-551): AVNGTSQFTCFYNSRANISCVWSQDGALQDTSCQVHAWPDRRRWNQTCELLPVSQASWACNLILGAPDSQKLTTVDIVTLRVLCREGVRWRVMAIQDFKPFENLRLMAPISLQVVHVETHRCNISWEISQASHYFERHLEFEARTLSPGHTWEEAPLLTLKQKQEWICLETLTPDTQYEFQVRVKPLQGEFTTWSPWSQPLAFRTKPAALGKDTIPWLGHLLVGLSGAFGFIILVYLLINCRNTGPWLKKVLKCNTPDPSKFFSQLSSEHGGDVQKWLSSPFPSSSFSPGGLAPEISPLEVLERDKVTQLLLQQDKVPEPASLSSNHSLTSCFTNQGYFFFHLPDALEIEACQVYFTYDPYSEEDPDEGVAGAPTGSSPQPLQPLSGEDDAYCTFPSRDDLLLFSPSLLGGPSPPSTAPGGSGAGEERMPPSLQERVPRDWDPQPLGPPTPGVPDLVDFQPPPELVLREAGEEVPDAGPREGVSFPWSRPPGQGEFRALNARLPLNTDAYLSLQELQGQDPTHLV
Test [10] deals with B2. The experiment in a line: flow cytometry on Daudi cells, FIG. 6 Panel A. Here is the method:
FIG. 6 illustrates the anti-CD20 binding activity of CD20-binding polypeptide compositions and immunocytokines (ICs). Human Daudi lymphoma cells were incubated with varying concentrations of polypeptide compositions and ICs and relative binding to the cells was assessed by flow cytometry, as described in Example 2.
(§1) Approximately 10⁶ Daudi cells were used with various concentrations of antibody or antibody-IL2 fusion protein in a 100 μl volume, for each sample tested.

The target of test [11] is T2, Leu16VhY/VkZ-IL2 (anti-CD20 PC2) (human, UniProt P60568 21-153).
T2 construct: Antibody-IL2 fusion (immunocytokine), glycosylated; also called AbVhY/VkZ-IL2; Ab(VhY/VkZ)-IL2; not shown: human kappa light chain constant region
T2 sequence (P60568 21-153 limits assumed): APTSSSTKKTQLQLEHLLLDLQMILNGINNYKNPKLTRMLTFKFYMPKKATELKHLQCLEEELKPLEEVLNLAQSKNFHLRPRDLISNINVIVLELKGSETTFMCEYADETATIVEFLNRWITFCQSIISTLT
The test can be described thus: flow cytometry on Daudi cells. Here is the method: as §1

Results on five molecules are retold here after patent US20120183545A1 (Merck KGaA, published 2012).

With 2B8-IL2 fusion protein, the mean fluorescence intensity in [1] came out at 720; in test [2], 857; in test [3] it was 513; in test [4] it was 369; in test [5], 52.1; in test [6], 85.3. In addition, the mean fluorescence intensity in test [7] came to 147; in [8], 229.
In the case of “human rIL-2 (from UniProt P60568 21-153) (ligand)”, the CTLL-2 ED50 in test [9] amounted to 0.65 ng/mL.
Molecule “KS-IL2, anti-EpCAM antibody fused to human IL-2 at the C-terminus of the antibody heavy chains (from UniProt P60568 21-153)” had a TF-1β ED50 with IL-2 Rβ on TF-1β cells of 0.51 ng/mL. For the same molecule, in [9], the CTLL-2 ED50 worked out at 1.71 ng/mL.
As to B1, the binding result in test [10] was “binds”.
In the case of B2, in test [11], the binding result is “binds”.
